These results are taken from paper PMC10164062 (Cancer discovery, 2023).

This data set deals with the molecule itself. The data set can be described thus: cross-linking.

B1: p53R245W (mouse, DNA binding domain mutant) (natural protein, mouse (endogenous in MEFs), UniProt P02340 1-390, looked up)
chain: MTAMEESQSDISLELPLSQETFSGLWKLLPPEDILPSPHCMDDLLLPQDVEEFFEGPSEALRVSGAPAAQDPVTETPGPVAPAPATPWPLSSFVPSQKTYQGNYGFHLGFLQSGTAKSVMCTYSPPLNKLFCQLAKTCPVQLWVSATPPAGSRVRAMAIYKKSQHMTEVVRRCPHHERCSDGDGLAPPQHLIRVEGNLYPEYLEDRQTFRHSVVVPYEPPEAGSEYTTIHYKYMCNSSCMGGMNWRPILTIITLEDSSGNLLGRDSFEVRVCACPGRDRRTEEENFRKKEVLCPELPPGSAKRALPTCTSASPPQKKKPLDGEYFTLKIRGRKRFEMFRELNEALELKDAHATEESGDSRAHSSYLKTKKGQSTSRHKKTMVKKVGPDSD
With B1, the stoichiometry N (as a rule, the number of molecules, sites or subunits per partner or assembly) was 4.
